Data on nine molecules can be found in patent publication US20240059757A1 (VIR BIOTECHNOLOGY, published 2024).

Read-outs that look alike come from different tables or passages of the source.

In assay [1] the target is T1, SARS-CoV RBD (Sino Biological) (SARS-CoV, UniProt P59594 306-527). As to the kind of experiment: BLI. (In BLI a coated tip is dipped into the sample, and binding shifts an interference pattern.)
The target in assay [2] is T2, SARS-CoV Spike protein (SARS-CoV, UniProt P59594 14-1255). As to the kind of experiment: cell-based or functional assay.
Assay [3] has as its target T1, SARS-CoV RBD (Sino Biological).
Assay [4] shares this target. As to the kind of experiment: BLI. This is another data set of the same source.
Assay [5] deals with WIV-1 spike protein (on VSV pseudovirus) (WIV-1). As to the kind of experiment: cell-based or functional assay.
The target in assay [6] is T2, SARS-CoV Spike protein. Put plainly: cell-based or functional assay. The source holds these as a separate data set.
A further assay addresses PANG/GD spike protein (PANG/GD). As to the kind of experiment: cell-based or functional assay.
The target of another assay is PANG/GX spike protein (PANG/GX). Put plainly: cell-based or functional assay.

B1: S2X259 variant antibody, VH SEQ ID NO 408 / VL SEQ ID NO 442 (antibody, V domains shown)
VH: QVQLVQSGAEVKKPGSSVKVSCKASGGIFNTYTISWVRQAPGQGLEWMGRIILMSGMANYAQKIQGRVTITADKSTSTAYMELTSLRSDDTAVYYCARGFNGNYYGWGDDDAFDISGQGTLVTVYS
VL: QTVLTQPPSVSGAPGQRVTISCTGSNSNIGAGYDVHWYQQLPGTAPKLLISGNSNRPSGVPDRFSGSKSGTSASLAITGLQAEDEADYYCQSYDSSLSGPNWVFGGGTKLTVL
In general, Kd refers to a measure of binding affinity in units of concentration. Lower therefore signals a tighter complex. B1 registered a dissociation constant (Kd) in assay [1] of 397 pM. Besides, the “neutralization IC50” value with SARS-CoV Spike protein [2] came to 0.0531 µg/mL.

B2: S2X259 variant antibody, VH SEQ ID NO 459 / VL SEQ ID NO 445 (antibody, V domains shown)
VH: QVQLVQSGAEVKKPGSSVKVSCKASGGIFNTYTISWVRQAPGQGLEWMGRIILMSGKANYAQKIQGRVTITADKSTSTAYMELTSLRSDDTAVYYCARGFNGNYYGWGDDDAFDIWGQGTLVTVSS
VL: QTVLTQPPSVSGAPGQRVTISCTGSNSNIGAGYDVHWYQQLPGTAPKLLIVGNSNRPSGVPDRFSGSKSGTSASLAITGLQAEDEADYYCQSYDSSLSGPNWVFGGGTKLTVL
As usually defined, the koff is the rate constant with which the complex falls apart. A low value points to a long-lived complex. By kon is commonly meant the rate constant with which the complex forms. Read a high kon as fast association. As to B2, in assay [3], the Kd came to 792 pM, the koff came to 0.000273 s⁻¹ and the on-rate (kon) is 345000 M⁻¹ s⁻¹.

B3: S2X259 variant antibody, VH SEQ ID NO 460 / VL SEQ ID NO 445 (antibody, V domains shown)
VH: QVQLVQSGAEVKKPGSSVKVSCKASGGIFNTYTISWVRQAPGQGLEWMGRIILISGIANYAQKIQGRVTITADKSTSTAYMELTSLRSDDTAVYYCARGFNGNYYGWGDDDAFDIWGQGTLVTVSS
VL: QTVLTQPPSVSGAPGQRVTISCTGSNSNIGAGYDVHWYQQLPGTAPKLLIVGNSNRPSGVPDRFSGSKSGTSASLAITGLQAEDEADYYCQSYDSSLSGPNWVFGGGTKLTVL
As for B3, in assay [3], the dissociation constant Kd worked out at 1590 pM, the off-rate (koff) was found to be 0.000621 s⁻¹ and the on-rate constant (kon) is 391000 M⁻¹ s⁻¹.

B4: S2X259 variant antibody, VH SEQ ID NO 446 / VL SEQ ID NO 412 (antibody, V domains shown)
VH: QVQLVQSGAEVKKPGSSVKVSCKASGGIFNTYTISWVRQAPGQGLEWMGRIILISGIANYAQKIQGRVTITADKSTSTAYMELTSLRSDDTAVYYCARGFNGNYYGWGDDDAFDISGQGTLVTVYS
VL: QTVLTQPPSVSGAPGQRVTISCTGSNSNIGAGYDVHWYQQLPGTAPKLLICGNSNRPSGVPDRFSGSKSGTSASLAITGLQAEDEADYYCQSYDSSLSGPNWVFGGGTKLTVL
B4 registered a Kd in assay [1] of 5580 pM.

B5: S2X259 variant antibody, VH SEQ ID NO 458 / VL SEQ ID NO 445 (antibody, V domains shown)
VH: QVQLVQSGAEVKKPGSSVKVSCKASGGIFNTYTISWVRQAPGQGLEWMGRIILMSGMANYAQKIQGRVTITADKSTSTAYMELTSLRSDDTAVYYCARGFNGNYYGWGDDDAFDIWGQGTLVTVSS
VL: QTVLTQPPSVSGAPGQRVTISCTGSNSNIGAGYDVHWYQQLPGTAPKLLIVGNSNRPSGVPDRFSGSKSGTSASLAITGLQAEDEADYYCQSYDSSLSGPNWVFGGGTKLTVL
For B5, in assay [4], the dissociation constant Kd came out at 455 pM, the off-rate (koff) came to 0.000173 s⁻¹ and the association rate constant (kon) was found to be 380000 M⁻¹ s⁻¹.

B6: S2X259 variant antibody, VH SEQ ID NO 408 / VL SEQ ID NO 445 (antibody, V domains shown)
VH: QVQLVQSGAEVKKPGSSVKVSCKASGGIFNTYTISWVRQAPGQGLEWMGRIILMSGMANYAQKIQGRVTITADKSTSTAYMELTSLRSDDTAVYYCARGFNGNYYGWGDDDAFDISGQGTLVTVYS
VL: QTVLTQPPSVSGAPGQRVTISCTGSNSNIGAGYDVHWYQQLPGTAPKLLIVGNSNRPSGVPDRFSGSKSGTSASLAITGLQAEDEADYYCQSYDSSLSGPNWVFGGGTKLTVL
Take B6: the Kd in assay [1] was determined as 530 pM; in assay [4], 176 pM. The molecule also displayed a koff in assay [4] of roughly 7.24e-05 s⁻¹. This molecule also came in with a kon in assay [4] of 411000 M⁻¹ s⁻¹. For the same molecule, the “neutralization IC50” value was less than 0.1 µg/mL in assay [5]; less than 0.1 µg/mL with SARS-CoV Spike protein [6]; less than 0.1 µg/mL in the assay with PANG/GD spike protein; less than 0.1 µg/mL in the assay with PANG/GX spike protein; 0.036 µg/mL in the assay with SARS-CoV Spike protein [2].

B7: S2X259 variant antibody, VH SEQ ID NO 408 / VL SEQ ID NO 444 (antibody, V domains shown)
VH: QVQLVQSGAEVKKPGSSVKVSCKASGGIFNTYTISWVRQAPGQGLEWMGRIILMSGMANYAQKIQGRVTITADKSTSTAYMELTSLRSDDTAVYYCARGFNGNYYGWGDDDAFDISGQGTLVTVYS
VL: QTVLTQPPSVSGAPGQRVTISCTGSNSNIGAGYDVHWYQQLPGTAPKLLIYGNSNRPSGVPDRFSGSKSGTSASLAITGLQAEDEADYYCQSYDSSLSGPNWVFGGGTKLTVL
Molecule B7 displayed a Kd in assay [1] of 1340 pM. In addition, in the assay with SARS-CoV Spike protein [2], the “neutralization IC50” value came out at 0.0811 µg/mL.

B8: S2X259 variant antibody, VH SEQ ID NO 448 / VL SEQ ID NO 412 (antibody, V domains shown)
VH: QVQLVQSGAEVKKPGSSVKVSCKASGGIFSTYTISWVRQAPGQGLEWMGRIILMSGMANYAQKIQGRVTITADKSTSTAYMELTSLRSDDTAVYYCARGFNGNYYGWGDDDAFDISGQGTLVTVYS
VL: QTVLTQPPSVSGAPGQRVTISCTGSNSNIGAGYDVHWYQQLPGTAPKLLICGNSNRPSGVPDRFSGSKSGTSASLAITGLQAEDEADYYCQSYDSSLSGPNWVFGGGTKLTVL
B8: in assay [1], the binding result is reported as “no binding”.

B9: S2X259 variant antibody, VH SEQ ID NO 408 / VL SEQ ID NO 443 (antibody, V domains shown)
VH: QVQLVQSGAEVKKPGSSVKVSCKASGGIFNTYTISWVRQAPGQGLEWMGRIILMSGMANYAQKIQGRVTITADKSTSTAYMELTSLRSDDTAVYYCARGFNGNYYGWGDDDAFDISGQGTLVTVYS
VL: QTVLTQPPSVSGAPGQRVTISCTGSNSNIGAGYDVHWYQQLPGTAPKLLIAGNSNRPSGVPDRFSGSKSGTSASLAITGLQAEDEADYYCQSYDSSLSGPNWVFGGGTKLTVL
As for B9, the affinity in assay [1], expressed as Kd, was 521 pM. In addition, the “neutralization IC50” value in assay [5] was less than 0.1 µg/mL; with SARS-CoV Spike protein [6], less than 0.1 µg/mL; with PANG/GD spike protein it was less than 0.1 µg/mL; with PANG/GX spike protein, less than 0.1 µg/mL; in the assay with SARS-CoV Spike protein [2], 0.0353 µg/mL.
